What was measured:
[1] = molecular target: fused glucose-6-phosphate dehydrogenase-phosphogluconolactonase protein from Trichomonas vaginalis (TvG6PD::6PGL) (Trichomonas vaginalis); assay: SEC; Sephacryl 400 (16/60) gel filtration column, 50 mM phosphate buffer pH 7.35, flow 0.3 mL/min, calibrated with Bio-Rad gel filtration standards; single peak at 59.9 mL; no monomer, dimer or larger aggregates seen
[2] = molecular target: T1, TvG6PD::6PGL (Trichomonas vaginalis, UniProt A2EC78); assay: intrinsic tryptophan fluorescence quenching titration, excitation […] nm; format: binding
T1 construct: gene TVAG_414060; full-length fused protein, 716 aa, G6PD N-terminal (1-483) and 6PGL C-terminal, 81,692 Da; pET3a-HisTEV, N-terminal His6 tag removed by TEV protease; E. coli BL21(DE3) zwf-deleted; native tetramer
T1 sequence (A2EC78 1-716): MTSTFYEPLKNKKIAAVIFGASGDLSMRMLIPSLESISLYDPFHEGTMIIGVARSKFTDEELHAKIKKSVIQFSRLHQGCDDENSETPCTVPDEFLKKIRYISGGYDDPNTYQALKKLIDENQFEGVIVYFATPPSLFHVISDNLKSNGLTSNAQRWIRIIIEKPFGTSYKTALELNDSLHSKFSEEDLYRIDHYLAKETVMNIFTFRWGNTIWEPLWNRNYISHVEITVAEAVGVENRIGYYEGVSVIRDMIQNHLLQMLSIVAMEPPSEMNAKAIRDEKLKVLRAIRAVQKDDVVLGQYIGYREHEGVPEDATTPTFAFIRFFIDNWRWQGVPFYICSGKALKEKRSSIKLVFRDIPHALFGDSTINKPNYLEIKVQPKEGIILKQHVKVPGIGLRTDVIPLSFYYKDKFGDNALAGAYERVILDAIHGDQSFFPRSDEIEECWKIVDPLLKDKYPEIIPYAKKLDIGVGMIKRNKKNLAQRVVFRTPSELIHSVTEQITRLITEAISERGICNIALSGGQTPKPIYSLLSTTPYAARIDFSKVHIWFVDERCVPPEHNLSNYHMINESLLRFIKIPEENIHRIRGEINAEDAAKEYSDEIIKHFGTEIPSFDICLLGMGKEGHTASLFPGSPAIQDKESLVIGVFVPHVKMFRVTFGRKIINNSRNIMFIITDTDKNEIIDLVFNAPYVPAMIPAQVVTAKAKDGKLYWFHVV

[3] = substrate: NC(=O)c1ccc[n+]([C@@H]2O[C@H](COP(=O)(O)OP(=O)(O)OC[C@H]3O[C@@H](n4cnc5c(N)ncnc54)[C@H](OP(=O)(O)O)[C@@H]3O)[C@@H](O)[C@H]2O)c1; assay: purified protein; format: biochemical, Trichomonas vaginalis; settings: G6P fixed at 1 mM, pH 8.0, apparent Km, catalytic site
[4] = substrate: O=P(O)(O)OC[C@H]1OC(O)[C@H](O)[C@@H](O)[C@@H]1O; assay: purified protein; format: biochemical, Trichomonas vaginalis; settings: NADP+ fixed at 150 uM, pH 8.0, apparent Km

Question: With “fused glucose-6-phosphate dehydrogenase-phosphogluconolactonase protein from Trichomonas vaginalis (TvG6PD::6PGL) (enzyme)” as the molecule, how does the stoichiometry N [1] read?
Answer: Its stoichiometry N is 4.

Question: For `NC(=O)c1ccc[n+]([C@@H]2O[C@H](COP(=O)(O)OP(=O)(O)OC[C@H]3O[C@@H](n4cnc5c(N)ncnc54)[C@H](OP(=O)(O)O)[C@@H]3O)[C@@H](O)[C@H]2O)c1` [NADP^+], which Kd [2] is on record?
Answer: Its Kd is 31 nM.

B1: TvG6PD::6PGL (Trichomonas vaginalis G3) (protein)
chain: T1 sequence (A2EC78 1-716)
notes: full-length fused protein, 716 aa, G6PD N-terminal (1-483) and 6PGL C-terminal, 81,692 Da; pET3a-HisTEV, N-terminal His6 tag removed by TEV protease; E. coli BL21(DE3) zwf-deleted; native tetramer
Question: Which results are given for B1?
Answer: Km [3]: 27 µM; kcat [3]: 147 s⁻¹; Km [4]: 210 µM; kcat [4]: 147 s⁻¹
